The record followed here is patent publication US20040081647A1 (published 2004).

For this assay, the target named is T1, human TNFα fusion protein with an N-terminal S-Tag (human, UniProt P01375 77-233).
T1 construct: Constructed, expressed and purified by the applicants; also called S-TNF; not shown: 15 amino acid S-Tag peptide (Novagen)
Briefly: indirect ELISA: sp55 from conditioned media captured on Ni-NTA wells, S-TNF at 1 µg/mL, S-protein-HRP, absorbance at 370 nm. For orientation: ELISA stands for enzyme-linked immunosorbent assay.

T1 sequence (P01375 77-233): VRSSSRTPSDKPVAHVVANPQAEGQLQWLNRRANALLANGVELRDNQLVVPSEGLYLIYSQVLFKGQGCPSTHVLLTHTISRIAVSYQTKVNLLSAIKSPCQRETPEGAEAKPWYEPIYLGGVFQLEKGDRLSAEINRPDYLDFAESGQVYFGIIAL

B1: sp55 address domain (human TNFR-1 ecto-domain residues 30-211) with C-terminal myc and His6 tags (receptor)
chain: DAAQPARRAVRSLVPHLGDREKRDSVCPQGKYIHPQNNSICCTKCHKGTYLYNDCPGPGQDTDCRECESGSFTASENHLRHCLSCSKCRKEMGQVEISSCTVDRDTVCGCRKNQYRHYWSENLFQCFNCSLCLNGTVHLSCQEKQNTVCTCHAGFFLRENECVSCSNCKKSLECTKLCLPQIENVKGTEDSGTTRGGPEQKLISEEDLNSAVDHHHHHH
notes: also called p55FL-myc-his; p55FL
With B1, the “fold elevation of S-TNF binding over non-specific binding in control samples” value worked out at 3 fold.
